Assay [1] has as its target T1, extracellular domain of activin receptor type IIB (ActRIIBecd), biotinylated (Homo sapiens (Human), UniProt Q13705 27-117, amino-biotinylated with amine-PEG3-Biotin).
T1 construct: immobilised on a streptavidin-coated sensor chip; also called biotinylated ActRIIBecd; extracellular domain of ActRIIB
T1 sequence: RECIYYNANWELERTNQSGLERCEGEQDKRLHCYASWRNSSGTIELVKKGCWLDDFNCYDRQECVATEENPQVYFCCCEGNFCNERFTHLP
Put plainly: BIAcore SPR as Example 5 (method not restated); SD ±2.39 nM. Here is the method:
(§1) Biosensor experiments. In one embodiment, experiments were performed on a BIAcore™ T100/T200 instrument (Pharmacia Biosensor AB) in the multichannel mode (serial flow path involving flow cells 1+2+3+4). Flow rate was 10 μl/min; temperature was 25° C.; and data were recorded at 2.5 points/s. All four segments of a sensor chip CMS were coated with streptavidin (Sigma) to a density of 2000 pg/mm² (2000 resonance units) by the aminocoupling procedure. ActRIIBecd (10 mg) and amine-PEG3-Biotin (10 mg, Pierce, Rockford, Ill.) were dissolved in 200 μl H₂O and 10 mg NaCNBH₃ was added to prepare biotinylated ActRIIBecd. The reaction mixture was heated at 70° C. for 24 h, after that a further 10 mg NaCNBH₃ was added and the reaction was heated at 70° C. for another 24 h. After cooling to room temperature, the mixture was desalted with the spin column (3,000 molecular weight cut off (MWCO)). […] Sensograms were recorded during flow of the analyte (the ActRIIBecd-associated polypeptides (i.e., domains) as previously described) first through flow cell 1 (control) then through flow cell 2 (biotinylated ActRIIBecd). […] The sensograms obtained at 1.11, 3.33, 10, 30, and 90 nM analyte were evaluated for equilibrium binding, association rate, and dissociation rate by using the programs supplied with the instrument (BIA evaluation 2.1; Software Handbook. 1995; Pharmacia Biosensor AB).
(In SPR one partner is held on a chip, and binding of the other changes the refractive index at the surface.)

The target in assay [2] is T1, extracellular domain of activin …. Put plainly: Mean KD column of Table 5; method not restated (BIAcore as Example 5); species also listed in Table 4. The method, boiled down:
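Kinetics read-out: ka, kd and equilibrium binding, fitted from sensograms after blank-cell subtraction. Setup comprised a streptavidin chip, biotin-ActRIIBecd loaded at 50-250 RU, analytes in glycine pH 4.5, flow 10 μl/min, temperature 25° C.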

Assay [3] has the same target. Put plainly: BIAcore SPR as Example 5 (method not restated); SD ±1.65 nM. Here is the method:
as §1

The target is the same in assay [4]. In words: BIAcore SPR as Example 5 (method not restated); SD ±2.05 nM. Here is the method: as §1
Assay [5] has the same target. Put plainly: BIAcore SPR as Example 5 (method not restated); SD ±3.30 nM. Here is the method: as §1
The target is the same in assay [6]. In words: BIAcore SPR as Example 5 (method not restated); SD ±1.27 nM. The procedure: as §1
The target is the same in assay [7]. Put plainly: BIAcore SPR as Example 5 (method not restated); SD ±3.22 nM. Here is the method: as §1
For assay [8] the target is unchanged. Put plainly: BIAcore SPR as Example 5 (method not restated); SD ±2.14 nM. Here is the method: as §1
The target is the same in assay [9]. In words: BIAcore SPR as Example 5 (method not restated); SD ±3.01 nM. The procedure:
as §1

Assay [10] has the same target. Put plainly: BIAcore SPR as Example 5 (method not restated); SD ±2.31 nM. Here is the method: as §1
Assay [11] shares this target. Put plainly: BIAcore SPR as Example 5 (method not restated); SD ±2.88 nM. The procedure:
as §1

The target is the same in assay [12]. In words: Mean KD column of Table 5; differs from Table 4 (22.31). The procedure: as §1
Assay [13] shares this target. In words: BIAcore SPR as Example 5 (method not restated); SD ±1.99 nM. Here is the method: as §1
For assay [14] the target is unchanged. Put plainly: BIAcore SPR as Example 5 (method not restated); SD ±1.12 nM. The procedure: as §1
The target is the same in assay [15]. Put plainly: BIAcore SPR as Example 5 (method not restated); SD ±1.03 nM. The procedure: as §1
Assay [16] shares this target. Put plainly: BIAcore SPR as Example 5 (method not restated); SD ±0.96 nM. The procedure: as §1
For assay [17] the target is unchanged. In words: BIAcore SPR as Example 5 (method not restated); SD ±2.09 nM. Here is the method: as §1
For assay [18] the target is unchanged. Put plainly: BIAcore SPR, biotinylated ActRIIBecd on chip; SD ±24.42 nM. The procedure: as §1
The target is the same in assay [19]. In words: BIAcore SPR, biotinylated ActRIIBecd on chip; SD ±12.79 nM. Here is the method:
as §1

This is an account of results in US20190071480A1 (Biogen, published 2019).

Bridges are numbered along the chain shown (N, C = ends).

B1: SEQ ID NO: 254, cysteine pairs C23-C27^a, C58-C93^a, C59-C91^a (designed binder)
chain: VDFKDVGWNDHAVAPPGYHAFYCHGECPFPLADHLNSDNHAIVQTKVNSVNSKDPKACCVPTELSAPSPLYLDENEKPVLKNYQDMVVHGCGCR
modifications: disulfides C23-C27 (intra), C58-C93 (intra), C59-C91 (intra)
As to B1, the Kd in assay [1] and in [2] was 19.1 nM throughout.

B2: SEQ ID NO: 254, cysteine pairs C23-C27^a, C58-C91^b, C59-C93^b (designed binder)
chain: B1 chain
modifications: disulfides C23-C27 (intra), C58-C91 (inter), C59-C93 (inter)
notes: homodimer by intermolecular disulfide
For B2, the equilibrium dissociation constant (Kd) in assay [3] and in [2] was 18.7 nM each time.

B3: SEQ ID NO: 254, cysteine pairs C23-C58^a (designed binder)
chain: B1 chain
modifications: disulfides C23-C58 (intra)
In the case of B3, the Kd in assay [4] and in assay [2] was 44.4 nM in each case.

B4: SEQ ID NO: 236, cysteine pairs C41-C59^a (designed binder)
chain: NSKDPKACCVPTELSAPSPLYLDENEKPVLKNYQDMVVHGCGCRGQAKRKGYKRLKSSCKRHPLY
modifications: disulfide 41-59
Take B4: the dissociation constant (Kd) in assay [5] and in assay [2] was 49.5 nM in each case.

B5: SEQ ID NO: 236, cysteine pairs C59-C59^b, C8-C43^a, C9-C41^a (designed binder)
chain: B4 chain
modifications: disulfide 9-41, 8-43; also: homodimer via intermolecular C59-C59 disulfide
notes: as for B2
In the case of B5, the Kd in assay [6] and in assay [2] was 17.1 nM each time.

B6: SEQ ID NO: 248, cysteine pairs C41-C43^a (designed binder)
chain: NSKDPKACCVPTELSAPSPLYLDENEKPVLKNYQDMVVHGCGCRVDFKDVGWNDHAVAPPGYHAFYCHGECPFPLADHLNSDNHAIVQTKVNSV
modifications: disulfides C41-C43 (intra)
With B6, the dissociation constant (Kd) in [7] and in assay [2] was 47.8 nM each time.

B7: SEQ ID NO: 248, cysteine pairs C67-C71^a, C8-C43^a, C9-C41^a (designed binder)
chain: B6 chain
modifications: disulfides C67-C71 (intra), C8-C43 (intra), C9-C41 (intra)
In the case of B7, the Kd in assay [8] and in assay [2] was 20 nM in each case.

B8: SEQ ID NO: 248, cysteine pairs C67-C71^a, C8-C43^b, C9-C41^b (designed binder)
chain: B6 chain
modifications: disulfides C67-C71 (intra), C8-C43 (inter), C9-C41 (inter)
notes: as for B2
As for B8, the equilibrium dissociation constant (Kd) in [9] and in assay [2] was 19.2 nM each time.

B9: SEQ ID NO: 230, cysteine pairs C23-C27^a (designed binder)
chain: VDFKDVGWNDHAVAPPGYHAFYCHGECPFPLADHLNSDNHAIVQTKVNSVGQAKRKGYKRLKSSCKRHPLY
modifications: disulfides C23-C27 (intra)
With B9, the equilibrium dissociation constant (Kd) in assay [10] and in assay [2] was 17.9 nM in each case.

B10: SEQ ID NO: 224, cysteine pairs C15-C44^a (designed binder)
chain: GQAKRKGYKRLKSSCKRHPLYVDFKDVGWNDHAVAPPGYHAFYCHGECPFPLADHLNSDNHAIVQTKVNSV
modifications: disulfides C15-C44 (intra)
Consider B10, for which the dissociation constant (Kd) in assay [11] and in assay [2] was 48.9 nM throughout.

B11: SEQ ID NO: 224, cysteine pairs C44-C48^a (designed binder)
chain: B10 chain
modifications: disulfides C44-C48 (intra)
Regarding B11, the results for the Kd in assay [12] and in [13] were 21.5 nM and 22.3 nM, respectively.

B12: SEQ ID NO: 260, cysteine pairs C15-C80^a, C44-C112^a, C48-C114^a, C79-C79^b (designed binder)
chain: AQAKHKQRKRLKSSCKRHPLYVDFSDVGWNDWIVAPPGYHAFYCHGECPFPLADHLNSTNHAIVQTLVNSVNSKIPKACCVPTELSAISMLYLDENEKVVLKNYQDMVVEGCGCR
modifications: disulfides C15-C80 (intra), C44-C112 (intra), C48-C114 (intra), C79-C79 (inter)
notes: as for B2
As for B12, the Kd in assay [14] and in assay [2] was 6.56 nM each time.

B13: SEQ ID NO: 260, cysteine pairs C15-C15^b, C79-C114^a, C80-C112^a, C44-C48^a (designed binder)
chain: B12 chain
modifications: disulfides C15-C15 (inter), C79-C114 (intra), C80-C112 (intra), C44-C48 (intra)
notes: as for B2
In the case of B13, the Kd in [15] and in [2] was 7.64 nM in each case.

B14: SEQ ID NO: 260, cysteine pairs C80-C114^b, C79-C112^b, C44-C48^a (designed binder)
chain: B12 chain
modifications: disulfides C80-C114 (inter), C79-C112 (inter), C44-C48 (intra)
notes: as for B2
As for B14, the Kd in assay [16] and in assay [2] was 6.89 nM throughout.

B15: SEQ ID NO: 242, cysteine pairs C15-C15^b, C29-C62^a, C30-C64^a (designed binder)
chain: GQAKRKGYKRLKSSCKRHPLYNSKDPKACCVPTELSAPSPLYLDENEKPVLKNYQDMVVHGCGCR
modifications: disulfide 29-62, 30-64; also: homodimer via intermolecular C15-C15 disulfide
notes: as for B2
Consider B15, for which the Kd in assay [17] and in assay [2] was 17.8 nM in each case.

B16: Clone No. 12 domain (ActRIIBecd-associated polypeptide) (peptide)
chain: AQAKHKQYKRLKSSCKRHPLY
With B16, binding in assay [18] was put at a Kd of 58.4 nM.

B17: Clone No. 14 domain (ActRIIBecd-associated polypeptide) (peptide)
chain: VDFKDVGWNDHAVAPPGYHAFYCHGECPFPLADHLNSDNHAIVQTKVNSV
As to B17, in assay [19], binding was characterised by a dissociation constant (Kd) of 38.3 nM.

The term Kd denotes the equilibrium constant for the complex coming apart. High values mean lower affinity, low ones higher affinity.
